Data set [1] has as its target Crp^Pg protein (Porphyromonas gingivalis A7436 Crp homolog, CRP/FNR superfamily) (Porphyromonas gingivalis A7436). Briefly: cross-linking; 10 uM purified Crp^Pg in PBS, 30 min at room temperature, without or with 1 mM cAMP, then 0.2% formaldehyde for 1 h at 37°C; SDS-PAGE with CBB G-250 staining; monomer to dimer.
Data set [2] addresses T1, CrpPg (Crp homolog) (Porphyromonas gingivalis A7436, UniProt Q7MAW7 1-232).
T1 sequence: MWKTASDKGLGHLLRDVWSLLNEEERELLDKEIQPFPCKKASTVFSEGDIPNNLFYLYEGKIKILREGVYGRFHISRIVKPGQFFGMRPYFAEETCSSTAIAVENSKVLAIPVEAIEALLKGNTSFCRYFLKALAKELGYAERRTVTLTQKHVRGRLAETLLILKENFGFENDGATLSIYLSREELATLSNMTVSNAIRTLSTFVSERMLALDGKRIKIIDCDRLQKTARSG
The data set can be described thus: EMSA. To be noted: protein: recombinant, tags: 6xHis-MBP N-terminal, removed with Factor Xa, chain copies: 2, blunt. (In general: In EMSA bound probe runs differently from free probe, usually more slowly.)

Consider three molecules from article PMC12040651, “cAMP-independent Crp homolog adds to the multi-layer regulatory network in Porphyromonas gingivalis”.

The stoichiometry N is the number of molecules, sites or subunits per partner or assembly.

Molecule “Crp^Pg protein (Porphyromonas gingivalis A7436 Crp homolog, CRP/FNR superfamily) (natural protein)” yielded a stoichiometry N in data set [1] of 2.

B1: mfa promoter fragment 5 (dsDNA)
DNA 1: ATTTAATATTAATCCTTTTAAACATTTGGCTTATGAAGTTAAACAAAATGTTTTTGGTCGGAGCATTGCTCTCATTGGGCT
DNA 2: AGCCCAATGAGAGCAATGCTCCGACCAAAAACATTTTGTTTAACTTCATAAGCCAAATGTTTAAAAGGATTAATATTAAAT
Turning to B1, in data set [2] (label: 5' biotin via PBM_0217 (probe)), the binding result was “binds”.

B2: crpPg promoter fragment 4 (dsDNA)
DNA 1: CTCATAATAATAGTTCTACGGCCTTTCTTCCTCGTTGTACGGATTTGAGCAAATAGACATTCTCTGAACACTTATATGTGGAAGACAG
DNA 2: CTGTCTTCCACATATAAGTGTTCAGAGAATGTCTATTTGCTCAAATCCGTACAACGAGGAAGAAAGGCCGTAGAACTATTATTATGAG
Regarding B2, the binding result in data set [2] (label: 5' biotin via PBM_0206 (probe)) is “binds”.
